How the values were obtained:
[1] = target: the molecule itself; assay: AUC
[2] = target: T1, CheW-CheA complex of Helicobacter pylori (Helicobacter pylori (G27 strain) | …, UniProt B5Z859 1-807; O25152 1-165); assay: kinase activity titration
T1 sequence (looked up) 1: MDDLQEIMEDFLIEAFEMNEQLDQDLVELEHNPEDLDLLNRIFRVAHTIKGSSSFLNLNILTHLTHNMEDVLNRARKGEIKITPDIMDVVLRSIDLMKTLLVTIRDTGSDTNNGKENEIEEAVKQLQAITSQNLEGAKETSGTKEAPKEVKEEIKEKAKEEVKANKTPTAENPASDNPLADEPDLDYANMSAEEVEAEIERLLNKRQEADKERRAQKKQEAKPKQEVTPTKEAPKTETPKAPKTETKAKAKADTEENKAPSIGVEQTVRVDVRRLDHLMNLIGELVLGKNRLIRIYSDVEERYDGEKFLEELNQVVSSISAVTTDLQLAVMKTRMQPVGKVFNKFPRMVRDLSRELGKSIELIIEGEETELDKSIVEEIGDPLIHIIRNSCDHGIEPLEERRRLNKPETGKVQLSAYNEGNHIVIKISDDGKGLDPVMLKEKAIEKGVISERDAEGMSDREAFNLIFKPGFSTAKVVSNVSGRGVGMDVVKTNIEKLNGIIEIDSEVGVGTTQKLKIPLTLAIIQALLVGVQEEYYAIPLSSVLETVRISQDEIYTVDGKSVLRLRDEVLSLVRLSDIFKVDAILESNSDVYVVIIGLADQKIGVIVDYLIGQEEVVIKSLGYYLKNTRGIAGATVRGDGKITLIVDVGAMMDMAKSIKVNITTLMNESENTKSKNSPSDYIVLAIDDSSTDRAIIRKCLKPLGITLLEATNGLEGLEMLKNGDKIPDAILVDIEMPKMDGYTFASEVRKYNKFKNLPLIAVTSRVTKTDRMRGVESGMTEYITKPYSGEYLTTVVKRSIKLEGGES
T1 sequence (looked up) 2: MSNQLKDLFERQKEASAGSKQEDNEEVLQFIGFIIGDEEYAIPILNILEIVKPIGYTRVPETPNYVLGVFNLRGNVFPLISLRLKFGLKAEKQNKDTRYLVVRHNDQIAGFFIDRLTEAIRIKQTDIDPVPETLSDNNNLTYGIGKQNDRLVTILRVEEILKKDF

[3] = target: T2, Helicobacter pylori histidine kinase CheA, strain G27 (Helicobacter pylori (G27 strain), UniProt B5Z859 1-807); assay: kinase activity titration
T2 sequence (looked up): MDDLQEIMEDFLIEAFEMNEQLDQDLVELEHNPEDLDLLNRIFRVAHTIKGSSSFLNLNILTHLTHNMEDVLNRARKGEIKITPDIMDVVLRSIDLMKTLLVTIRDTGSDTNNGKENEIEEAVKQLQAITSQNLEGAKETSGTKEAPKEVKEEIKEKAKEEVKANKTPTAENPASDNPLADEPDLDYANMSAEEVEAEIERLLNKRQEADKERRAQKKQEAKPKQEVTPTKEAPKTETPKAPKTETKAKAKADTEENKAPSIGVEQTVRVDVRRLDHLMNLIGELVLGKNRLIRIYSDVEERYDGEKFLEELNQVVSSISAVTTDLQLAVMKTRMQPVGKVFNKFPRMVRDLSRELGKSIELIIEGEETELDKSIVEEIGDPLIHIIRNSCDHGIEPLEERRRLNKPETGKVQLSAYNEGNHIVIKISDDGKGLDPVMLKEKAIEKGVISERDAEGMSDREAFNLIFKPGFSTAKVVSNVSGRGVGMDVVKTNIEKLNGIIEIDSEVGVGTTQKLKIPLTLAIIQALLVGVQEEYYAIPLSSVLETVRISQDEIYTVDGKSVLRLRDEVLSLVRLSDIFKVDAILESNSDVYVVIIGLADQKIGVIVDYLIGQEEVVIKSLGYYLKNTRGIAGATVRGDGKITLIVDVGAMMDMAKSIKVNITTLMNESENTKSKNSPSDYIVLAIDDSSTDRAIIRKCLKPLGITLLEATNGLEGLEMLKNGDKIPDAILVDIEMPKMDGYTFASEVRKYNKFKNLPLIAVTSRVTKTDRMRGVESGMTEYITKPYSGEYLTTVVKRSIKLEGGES

B1: Helicobacter pylori transducer-like protein D (TlpD), strain SS1 (receptor)
chain: not shown
Kd [1]: 0.15 µM | stoichiometry N [1]: 2 | Kd [2]: 15.2 µM

B2: Helicobacter pylori scaffold protein CheW, strain SS1 (natural protein, Helicobacter pylori (SS1 strain), UniProt O25152 1-165, looked up)
chain: MSNQLKDLFERQKEASAGSKQEDNEEVLQFIGFIIGDEEYAIPILNILEIVKPIGYTRVPETPNYVLGVFNLRGNVFPLISLRLKFGLKAEKQNKDTRYLVVRHNDQIAGFFIDRLTEAIRIKQTDIDPVPETLSDNNNLTYGIGKQNDRLVTILRVEEILKKDF
Kd [3]: 14.6 µM

— doi:10.1101/544239 (bioRxiv, 2019)
